Two molecules from PMC5064014, “SUMOylated NKAP is essential for chromosome alignment by anchoring CENP-E to kinetochores” (Nature Communications, 2016) can be followed below.

This assay addresses T1, human His-Bub3 full-length recombinant protein (human, UniProt O43684 1-328).
T1 construct: Bub3, human, full-length recombinant protein; also called Recombinant His-Bub3; source: bought: Abcam (ab139802)
The experiment in a line: pull-down; recombinant His-Bub3 incubated with GST, GST-NKAP and its deletion mutants; 50 mM Tris–HCl pH 7.5, 150 mM NaCl, 1 mM EDTA, 0.3 mM dithiothreitol, 0.1% NP-40; overnight at 4 °C; bound protein by immunoblot. As to conditions: both partners purified. A general note: Immunoblotting shows a protein as a band on a membrane.

T1 sequence (O43684 whole entry): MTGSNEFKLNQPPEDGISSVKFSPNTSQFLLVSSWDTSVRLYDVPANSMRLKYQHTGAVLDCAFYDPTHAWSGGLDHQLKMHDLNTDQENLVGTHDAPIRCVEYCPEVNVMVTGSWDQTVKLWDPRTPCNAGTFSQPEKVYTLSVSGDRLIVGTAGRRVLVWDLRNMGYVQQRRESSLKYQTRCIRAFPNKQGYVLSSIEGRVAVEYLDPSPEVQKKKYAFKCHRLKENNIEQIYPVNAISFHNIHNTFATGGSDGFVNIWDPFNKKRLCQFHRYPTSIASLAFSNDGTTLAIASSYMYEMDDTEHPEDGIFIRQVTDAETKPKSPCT

B1: GST-NKAP deletion mutant aa 139–276 (domain or fragment, human, UniProt Q8N5F7 139-276, looked up)
chain: ELGAPEVWGLSPKNPEPDSDEHTPVEDEEPKKSTTSASTSEEEKKKKSSRSKERSKKRRKKKSSKRKHKKYSEDSDSDSDSETDSSDEDNKRRAKKAKKKEKKKKHRSKKYKKKRSKKSRKESSDSSSKESQEEFLEN
notes: The text names the region; source: E. coli DH5α, purified (glutathione Sepharose 4B)
As for B1, the binding result is given as “binds”.

B2: GST-NKAP deletion mutant aa 1–138 (domain or fragment, human, UniProt Q8N5F7 1-138, looked up)
chain: MAPVSGSRSPDREASGSGGRRRSSSKSPKPSKSARSPRGRRSRSHSCSRSGDRNGLTHQLGGLSQGSRNQSYRSRSRSRSRERPSAPRGIPFASASSSVYYGSYSRPYGSDKPWPSLLDKEREESLRQKRLSERERIG
notes: as for B1
Regarding B2, the binding result is recorded as “binds”.
